Assay results reported in publication PMC2740933.

Biological target: Moloney murine leukemia virus reverse transcriptase N-terminal fragment (MMLV RT) (Moloney murine leukemia virus, UniProt P03355 683-937)
Test: X-ray crystallography

Sequence of Moloney murine leukemia virus reverse transcriptase N-terminal fragment (MMLV RT) (P03355 683-937): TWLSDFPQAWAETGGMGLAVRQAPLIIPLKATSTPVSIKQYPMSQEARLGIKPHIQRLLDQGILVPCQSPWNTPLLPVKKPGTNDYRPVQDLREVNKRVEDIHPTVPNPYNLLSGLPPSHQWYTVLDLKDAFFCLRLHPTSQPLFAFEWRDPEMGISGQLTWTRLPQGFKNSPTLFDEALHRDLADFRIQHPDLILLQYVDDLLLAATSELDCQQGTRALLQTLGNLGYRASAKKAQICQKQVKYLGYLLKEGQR

B1: 16-mer AATT duplex (dsDNA)
DNA 1: CTTAATTCGAATTAAG
DNA 2: CTTAATTCGAATTAAG
Q: Does B1 bind?
A: Result: binds
